Results published in article PMC6908751 (Cell host & microbe, 2019).

B1: human anti-N9 antibody NA-73 Fab (Fab, V domains shown)
VH: QVQLEESGPGLVKPSETLSLTCTVSGYTISSGYYWGWIRQPPGKGLEWIGCNNHRGSSYYNPSLKSRVIISVDTTKNKFSLKLSSVTAADTAVYYCARDPSFWSSTSRTSPYYYGMDVWGQGTLVTVSS
VL: not shown
B2: human anti-N9 antibody NA-63 Fab (Fab, V domains shown)
VH: EVQLVESGGGLVQPGGSLRLSCAASGFTFSSYWMSWVRQAPGKGLDWVANIKQDGSEKYYVDSVKGRFTISRHNAKNSLYLQMNSLRAEDTAVYYCASSTAAEFFDYWGQGTLVTVSS
VL: DIVMTQSPSSLSASVGDRVTITCRASQSISTYLNWYQQKPGKAPKLLIYAASSLQGGVPSRFSGSGSGTDFTLTISSLQPEDFATYYCQQSYSTPLYTFGQGTKLEIK
B3: human anti-N9 antibody NA-80 Fab (Fab, V domains shown)
VH: QVQLVQSGAEVKRPGASVKVSCKASGYTFISYGISWVRQAPGQGLEWMGWISAYNGNTNYAQNLQGRVTMTTDTSTSTAYMELRSLRSDDTAVYYCARVIPGTAVDYFDYWGQGTLVTVSS
VL: DIVMTQSPSSLSASVGDRVTISCRASQSISSYLNWYQQKPGKAPKLLIYAASSLQSGVPSRFSGSASGTDFTLTISSLQPEDFATYYCQQSYSAPFTFGPGTKVDIE
B4: human anti-N9 antibody NA-22 Fab (Fab, V domains shown)
VH: QVQLVESGGGVVQPGRSLRLSCAASGFTFNNYGMHWVRQAPGKGLEWVAVISYDGSNKYYADSVKGRFTISRDNSKNTLYLQMNSLRAEDTAVYYCAKDKRFITMILVGPFDYWGQGTLVTVSS
VL: QSVLTQPASVSGSPGQSITISCTGTSSDVGGYNYVSWHQQHPGKAPKLMIYDVSNRPSGVSNRFSGSKSGNTASLTISGLQTEDEADYYCSSYTSSTTNVFGTGTKVTVL

Biological target: Sh2 N9 NA ectodomain plus stalk with His6-tag (tetramer) (influenza A virus A/Shanghai/02/2013 …)
Experiment: cryo-EM structure

Binder	stoichiometry N	binding result
B1	1 Fab per NA protomer	
B2		binds
B3	1 Fab per NA protomer	
B4	4 Fabs per NA tetramer	
